Source: patent US20220002427A1 (ENGMAB SARL, published 2022)
Positions count from the first letter of the chain named. Several values for one entry are separate records, joined by “and”; a condition that tells them apart may be missing. Equal entries are not always repeated.

Key:
human BCMA on cells [1] = molecular target: T1, human BCMA on cells (human, UniProt Q02223 1-184); experiment: cell-based or functional assay
T1 sequence (looked up): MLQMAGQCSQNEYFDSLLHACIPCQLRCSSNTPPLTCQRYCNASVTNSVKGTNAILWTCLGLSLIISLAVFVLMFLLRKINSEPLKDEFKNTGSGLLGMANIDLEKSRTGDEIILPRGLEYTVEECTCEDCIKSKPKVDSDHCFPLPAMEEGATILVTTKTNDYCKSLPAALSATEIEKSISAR

human BCMA on cells [2] = molecular target: T1, human BCMA on cells; experiment: flow cytometry on RPMI-8226 multiple myeloma cells, PE anti-human Fc F(ab')2 detection; estimated EC50
Experimental: (§1) Briefly, cultured cells are harvested, counted and cell viability was evaluated using ViCell. Viable cells are then adjusted to 2×10⁶ cells per ml in BSA-containing FACS Stain Buffer (BD Biosciences). 100 μl of this cell suspension were further aliquoted per well into a round-bottom 96-well plate and incubated with 30 μl of the anti-BCMA antibodies or corresponding IgG control for 30 min at 4° c. All Anti-BCMA/anti-CD3 TCB antibodies (and TCB controls) were titrated and analyzed in final concentration range between 1-300 nM. Cells were then centrifuged (5 min, 350×g), washed with 120 μl/well FACS Stain Buffer (BD Biosciences), resuspended and incubated for an additional 30 min at 4° C. with fluorochrome-conjugated PE-conjugated AffiniPure F(ab′)2 Fragment goat anti-human IgG Fc Fragment Specific (Jackson Immuno Research Lab; 109-116-170). Cells were then washed twice with Stain Buffer (BD Biosciences), fixed using 100 ul BD Fixation buffer per well (#BD Biosciences, 554655) at 4° C. for 20 min, resuspended in 120 μl FACS buffer and analyzed using BD FACS CantoII.

human BCMA on cells [3] = molecular target: T1, human BCMA on cells; experiment: flow cytometry on H929 multiple myeloma cells, PE anti-human Fc F(ab')2 detection; estimated EC50
Experimental: as §1

human BCMA on cells [4] = molecular target: T1, human BCMA on cells; experiment: cell-based or functional assay; remark: listed apart in the source
human BCMA on cells [5] = molecular target: T1, human BCMA on cells; experiment: cell-based or functional assay; remark: listed apart in the source
human BCMA on cells [6] = molecular target: T1, human BCMA on cells; experiment: cell-based or functional assay; remark: listed apart in the source
human BCMA on cells [7] = molecular target: T1, human BCMA on cells; experiment: cell-based or functional assay; remark: listed apart in the source
human BCMA on cells [8] = molecular target: T1, human BCMA on cells; experiment: flow cytometry on L363 multiple myeloma cells, PE anti-human Fc F(ab')2 detection; estimated EC50
Experimental: as §1

B1: 21-TCBcv (bispecific antibody, human IgG1, kappa, L234A L235A)
heavy 1: not shown
heavy 2: EVQLLESGGGLVQPGGSLRLSCAASGFTFSDNAMGWVRQAPGKGLEWVSAISGPGSSTYYADSVKGRFTISRDNSKNTLYLQMNSLRAEDTAVYYCAKVLGWFDYWGQGTLVTVSSASTKGPSVFPLAPSSKSTSGGTAALGCLVEDYFPEPVTVSWNSGALTSGVHTFPAVLQSSGLYSLSSVVTVPSSSLGTQTYICNVNHKPSNTKVDEKVEPKSCDKTHTCPPCPAPEAAGGPSVFLFPPKPKDTLMISRTPEVTCVVVDVSHEDPEVKFNWYVDGVEVHNAKTKPREEQYNSTYRVVSVLTVLHQDWLNGKEYKCKVSNKALGAPIEKTISKAKGQPREPQVCTLPPSRDELTKNQVSLSCAVKGFYPSDIAVEWESNGQPENNYKTTPPVLDSDGSFFLVSKLTVDKSRWQQGNVFSCSVMHEALHNHYTQKSLSLSPGK
light 1: EIVLTQSPGTLSLSPGERATLSCRASQSVSEYYLAWYQQKPGQAPRLLIEHASTRATGIPDRFSGSGSGTDFTLTISRLEPEDFAVYYCQQYGYPPDFTFGQGTKVEIKRTVAAPSVFIFPPSDRKLKSGTASVVCLLNNFYPREAKVQWKVDNALQSGNSQESVTEQDSKDSTYSLSSTLTLSKADYEKHKVYACEVTHQGLSSPVTKSFNRGEC
light 2: EVQLLESGGGLVQPGGSLRLSCAASGFTFSTYAMNWVRQAPGKGLEWVSRIRSKYNNYATYYADSVKGRFTISRDDSKNTLYLQMNSLRAEDTAVYYCVRHGNFGNSYVSWFAYWGQGTLVTVSSASVAAPSVFIFPPSDEQLKSGTASVVCLLNNFYPREAKVQWKVDNALQSGNSQESVTEQDSKDSTYSLSSTLTLSKADYEKHKVYACEVTHQGLSSPVTKSFNRGEC
notes: also called anti-BCMA/anti-CD3 T cell bispecific antibody of Mab21
EC50 of redirected T-cell killing of RPMI-8226 cells (LDH release), Donor 2 (human BCMA on cells [1]): 0.0413 nM | EC50 of redirected T-cell killing of RPMI-8226 cells (LDH release), Donor 3 (human BCMA on cells [1]): 0.0088 nM | EC50 of redirected T-cell killing of RPMI-8226 cells (LDH release), Donor 4 (human BCMA on cells [1]): 0.004 nM | EC50 of redirected T-cell killing of RPMI-8226 cells (LDH release), Donor 5 (human BCMA on cells [1]): 0.0084 nM | EC50 (human BCMA on cells [2]): 6.8 nM and 0.982 µg/mL | EC50 (human BCMA on cells [3]): 11 nM and 1.59 µg/mL | EC50 of redirected T-cell killing of L363 cells (LDH release), Donor 1 (human BCMA on cells [4]): 0.0836 nM | EC50 of redirected T-cell killing of L363 cells (LDH release), Donor 2 (human BCMA on cells [4]): 0.0384 nM | EC50 of redirected T-cell killing of L363 cells (LDH release), Donor 3 (human BCMA on cells [4]): 0.0189 nM | EC50 of redirected T-cell killing of L363 cells (LDH release), Donor 4 (human BCMA on cells [4]): 0.0191 nM | EC50 of redirected T-cell killing of L363 cells (LDH release), Donor 5 (human BCMA on cells [4]): 0.0464 nM | EC50 of redirected T-cell killing of H929 cells (LDH release), Donor 1 (human BCMA on cells [5]): 0.0971 nM | EC50 of redirected T-cell killing of H929 cells (LDH release), Donor 3 (human BCMA on cells [5]): 0.0421 nM | EC50 of redirected T-cell killing of H929 cells (LDH release), Donor 4 (human BCMA on cells [5]): 0.0539 nM | EC50 of redirected T-cell killing of H929 cells (LDH release), Donor 5 (human BCMA on cells [5]): 0.0387 nM

B2: 42-TCBcv (bispecific antibody, human IgG1, kappa, L234A L235A)
heavy 1: not shown
heavy 2: B1 heavy 2
light 1: B1 light 1 with E31D, Y32E, A35S, E50H, H51S, T75A
light 2: B1 light 2
notes: also called 42-TCVcv; anti-BCMA/anti-CD3 T cell bispecific antibody of Mab42
EC50 of redirected T-cell killing of RPMI-8226 cells (LDH release), Donor 2 (human BCMA on cells [1]): 0.383 nM | EC50 of redirected T-cell killing of RPMI-8226 cells (LDH release), Donor 3 (human BCMA on cells [1]): 0.0187 nM | EC50 of redirected T-cell killing of RPMI-8226 cells (LDH release), Donor 4 (human BCMA on cells [1]): 0.0035 nM | EC50 of redirected T-cell killing of RPMI-8226 cells (LDH release), Donor 5 (human BCMA on cells [1]): 0.0015 nM | Lysis of JJN-3 cells (%) at 0.1 pM TCB, Experiment 2 (human BCMA on cells [6]): 17.6% | Lysis of JJN-3 cells (%) at 1 pM TCB, Experiment 1 (human BCMA on cells [6]): 40.3% | Lysis of JJN-3 cells (%) at 1 pM TCB, Experiment 2 (human BCMA on cells [6]): 34.9% | Lysis of JJN-3 cells (%) at 10 pM TCB, Experiment 1 (human BCMA on cells [6]): 39% | Lysis of JJN-3 cells (%) at 10 pM TCB, Experiment 2 (human BCMA on cells [6]): 39.4% | Lysis of JJN-3 cells (%) at 100 pM TCB, Experiment 1 (human BCMA on cells [6]): 41.9% | Lysis of JJN-3 cells (%) at 100 pM TCB, Experiment 2 (human BCMA on cells [6]): 55.3% | Lysis of JJN-3 cells (%) at 1000 pM TCB, Experiment 1 (human BCMA on cells [6]): 84% | Lysis of JJN-3 cells (%) at 1000 pM TCB, Experiment 2 (human BCMA on cells [6]): 81.1% | Lysis of JJN-3 cells (%) at 10000 pM TCB, Experiment 1 (human BCMA on cells [6]): 92.9% | Lysis of JJN-3 cells (%) at 10000 pM TCB, Experiment 2 (human BCMA on cells [6]): 90.4% | EC50 (human BCMA on cells [2]): 13.2 nM and 1.91 µg/mL | EC50 (human BCMA on cells [3]): 13.6 nM and 1.96 µg/mL | Annexin-V positive JJN-3 cells (%) at 0.1 pM TCB, Experiment 2 (human BCMA on cells [7]): 12.8% | Annexin-V positive JJN-3 cells (%) at 1 pM TCB, Experiment 1 (human BCMA on cells [7]): 11.9% | Annexin-V positive JJN-3 cells (%) at 1 pM TCB, Experiment 2 (human BCMA on cells [7]): 13.5% | Annexin-V positive JJN-3 cells (%) at 10 pM TCB, Experiment 1 (human BCMA on cells [7]): 12.3% | Annexin-V positive JJN-3 cells (%) at 10 pM TCB, Experiment 2 (human BCMA on cells [7]): 13.6% | Annexin-V positive JJN-3 cells (%) at 100 pM TCB, Experiment 1 (human BCMA on cells [7]): 8.62% | Annexin-V positive JJN-3 cells (%) at 100 pM TCB, Experiment 2 (human BCMA on cells [7]): 14.4% | Annexin-V positive JJN-3 cells (%) at 1000 pM TCB, Experiment 1 (human BCMA on cells [7]): 16.8% | Annexin-V positive JJN-3 cells (%) at 1000 pM TCB, Experiment 2 (human BCMA on cells [7]): 21.7% | Annexin-V positive JJN-3 cells (%) at 10000 pM TCB, Experiment 1 (human BCMA on cells [7]): 24.8% | Annexin-V positive JJN-3 cells (%) at 10000 pM TCB, Experiment 2 (human BCMA on cells [7]): 26.9% | EC50 of redirected T-cell killing of L363 cells (LDH release), Donor 1 (human BCMA on cells [4]): 0.0155 nM | EC50 of redirected T-cell killing of L363 cells (LDH release), Donor 2 (human BCMA on cells [4]): 0.0167 nM | EC50 of redirected T-cell killing of L363 cells (LDH release), Donor 3 (human BCMA on cells [4]): 0.0052 nM | EC50 of redirected T-cell killing of L363 cells (LDH release), Donor 4 (human BCMA on cells [4]): 0.0022 nM | EC50 of redirected T-cell killing of L363 cells (LDH release), Donor 5 (human BCMA on cells [4]): 0.0106 nM | EC50 (human BCMA on cells [8]): 3.8 nM and 0.553 µg/mL | EC50 of redirected T-cell killing of H929 cells (LDH release), Donor 1 (human BCMA on cells [5]): 0.0097 nM | EC50 of redirected T-cell killing of H929 cells (LDH release), Donor 3 (human BCMA on cells [5]): 0.0117 nM | EC50 of redirected T-cell killing of H929 cells (LDH release), Donor 4 (human BCMA on cells [5]): 0.0072 nM | EC50 of redirected T-cell killing of H929 cells (LDH release), Donor 5 (human BCMA on cells [5]): 0.0068 nM
